{
  "source": "paper doi:10.1101/2020.02.06.938233",
  "about": "(bioRxiv, 2020)",
  "target": "the molecule itself",
  "assay": "FRET or BRET",
  "data": [
    {"protein": "UL44(2-433), wild type, as CFP, YFP or RLuc fusion in HEK 293T cells (natural protein) DRKTRLSEPPTLALRLKPYKTAIQQLRSVIRALKENTTVTFLPTPSLILQTVRSHCVSKITFNSSCLYITDKSFQPKTINNSTPLLGNFMYLTSSKDLTKFYVQDISDLSAKISMCAPDFNMEFSSACVHGQDIVRESENSAVHVDLDFGVVADLLKWIGPHTRVKRNVKKAPCPTGTVQILVHAGPPAIKFILTNGSELEFTANNRVSFHGVKNMRINVQLKNFYQTLLNCAVTKLPCTLRIVTEHDTLLYVASRNGLFAVENFLTEEPFQRGDPFDKNYVGNSGKSRGGGGGGGSLSSLANAGGLHDDGPGLDNDLMNEPMGLGGLGGGGGGGGKKHDRGGGGGSGTRKMSSGGGGGDHDHGLSSKEKYEQHKITSYLTSKGGSGGGGGGGGGGLDRNSGNYFNDAKEESDSEDSVTFEFVPNTKKQKCG", "values": [
      {"measurement": "BRET ratio", "result": "0.36 ± 0.1"}
    ]}
  ]
}
